Sequences and labels used below:
B1: CC CKR-2 C-terminal peptide AA42L (peptide)
peptide: Biotin-GKGKSIGRAPEASLQDKEGA
notes: Only the last four residues are seen in the excerpts
B2: CC CKR-1R C-terminal peptide AA41L (peptide)
peptide: Biotin-LERVSSTSPSTGEHELSAGF
notes: as for B1

Ends that are not written are not given here. * marks the point of attachment. Biotin = O=C1N[C@H]2[C@H](CS[C@H]2CCCCC(=O)*)N1

T14 sequence (Q2T9M1 other isoform, or with tags, fused parts or gaps limits assumed): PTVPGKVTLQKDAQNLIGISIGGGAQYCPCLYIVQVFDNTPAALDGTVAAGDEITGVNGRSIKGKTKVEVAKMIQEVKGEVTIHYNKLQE

One assay has as its target T1, GST-DLG5 (p-dlg) PDZ domain fusion protein (Human, UniProt Q8TDM6 1343-1583).
T1 construct: also called Human discs large protein p-dlg; not shown: glutathione S-transferase encoded by vector pGEX-3X (Pharmacia)
T1 sequence: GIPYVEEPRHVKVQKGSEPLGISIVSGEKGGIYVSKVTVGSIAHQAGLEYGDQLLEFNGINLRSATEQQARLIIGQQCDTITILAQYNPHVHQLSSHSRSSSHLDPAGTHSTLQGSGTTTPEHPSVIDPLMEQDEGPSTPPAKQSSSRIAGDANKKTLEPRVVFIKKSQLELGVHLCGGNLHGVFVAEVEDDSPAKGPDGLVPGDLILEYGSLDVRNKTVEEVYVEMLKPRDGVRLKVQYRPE
Nature of the assay: A/G assays.
Biotin-ARHRVTSYTSSSVNVSSNL [CDW128A (IL8RA) C-terminal peptide AA29.1L, biotinylated]: the binding result is “no binding”.
The same measure, in the same setting: to B1 belongs “no binding”; to B2, “no binding”.

In the next assay the target is T2, GST-DVL1 PDZ domain fusion protein (human, UniProt O14640 247-339).
T2 construct: also called human dishevelled segment polarity protein homolog; not shown: glutathione S-transferase encoded by vector pGEX-3X (Pharmacia)
T2 sequence: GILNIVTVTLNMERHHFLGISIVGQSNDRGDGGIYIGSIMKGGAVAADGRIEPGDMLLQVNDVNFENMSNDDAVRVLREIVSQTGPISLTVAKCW
Nature of the assay: A/G assays.
With Biotin-ARHRVTSYTSSSVNVSSNL [CDW128A (IL8RA) C-terminal peptide AA29.1L, biotinylated], the binding result is recorded as “no binding”.
Same read-out and setting: in the case of B1 it was “no binding”; in that of B2, “no binding”.

For another assay, the target named is T3, GEF PDZ-GST fusion protein (Homo sapiens (Human), UniProt Q8TEU7 293-400).
T3 construct: The label GEF is not explained in the excerpts
T3 sequence: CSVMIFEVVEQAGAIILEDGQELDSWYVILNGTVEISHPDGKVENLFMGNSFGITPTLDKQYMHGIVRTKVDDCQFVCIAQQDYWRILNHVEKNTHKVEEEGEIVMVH
The experiment in a line: A/G assays.
For Biotin-ARHRVTSYTSSSVNVSSNL [CDW128A (IL8RA) C-terminal peptide AA29.1L, biotinylated], the binding result is given as “no binding”.
Regarding B1, the binding result is “no binding”.
Same read-out and setting: in the case of B2 it was “no binding”.

For the next assay, the target named is T4, GST-TAX-IP43 PDZ domain fusion protein (human, UniProt Q13884 109-180).
T4 construct: also called TAX43; not shown: glutathione S-transferase encoded by vector pGEX-3X (Pharmacia)
T4 sequence: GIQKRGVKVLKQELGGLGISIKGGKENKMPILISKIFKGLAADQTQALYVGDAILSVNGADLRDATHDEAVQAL
The experiment in a line: A/G assays.
Regarding Biotin-ARHRVTSYTSSSVNVSSNL [CDW128A (IL8RA) C-terminal peptide AA29.1L, biotinylated], the binding result is recorded as “no binding”.
Take B1: the binding result was “no binding”.
The same measure, in the same setting: in the case of B2 it was “no binding”.

The target of the next assay is T5, GST-AF6 PDZ domain fusion protein (Homo sapiens (Human), UniProt P55196 1001-1093).
T5 construct: also called af-6 protein; not shown: glutathione S-transferase encoded by vector pGEX-3X (Pharmacia)
T5 sequence: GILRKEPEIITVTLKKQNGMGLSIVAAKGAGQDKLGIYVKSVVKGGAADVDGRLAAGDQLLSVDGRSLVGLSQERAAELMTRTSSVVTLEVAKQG
The experiment in a line: A/G assays.
For the molecule Biotin-ARHRVTSYTSSSVNVSSNL [CDW128A (IL8RA) C-terminal peptide AA29.1L, biotinylated], the binding result was “no binding”.
Regarding B1, the binding result was “no binding”.
The same measure, in the same setting: in the case of B2 it was “no binding”.

The target of the next assay is T6, K316 PDZ-GST fusion protein (Homo sapiens (Human), UniProt Q14CM0 72-159).
T6 construct: Order of GST and PDZ part and limits not seen in the excerpts
T6 sequence (Q14CM0 72-159 limits assumed): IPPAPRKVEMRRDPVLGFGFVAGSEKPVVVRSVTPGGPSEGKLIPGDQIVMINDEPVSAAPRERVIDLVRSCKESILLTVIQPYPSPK
Nature of the assay: A/G assays.
Turning to Biotin-ARHRVTSYTSSSVNVSSNL [CDW128A (IL8RA) C-terminal peptide AA29.1L, biotinylated], the binding result was “no binding”.
With B1, the binding result is “no binding”.
As to B2, the binding result was “no binding”.

The next assay has as its target T7, GST-KIAA0303 PDZ domain fusion protein (Homo sapiens (Human), UniProt O15021 1138-1228).
T7 construct: also called K303; not shown: glutathione S-transferase encoded by vector pGEX-3X (Pharmacia)
T7 sequence: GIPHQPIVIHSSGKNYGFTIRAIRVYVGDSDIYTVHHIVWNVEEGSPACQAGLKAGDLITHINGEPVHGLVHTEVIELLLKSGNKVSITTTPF
The experiment in a line: A/G assays.
Biotin-ARHRVTSYTSSSVNVSSNL [CDW128A (IL8RA) C-terminal peptide AA29.1L, biotinylated]: the binding result is on record as “no binding”.
On to B1, for which the binding result was “no binding”.
On the same count and under the same terms, to B2 belongs “no binding”.

The target of a further assay is T8, TAX-IP2L PDZ-GST fusion protein (Homo sapiens (Human), UniProt Q8TF64 107-197).
T8 construct: Order of GST and PDZ part and limits not seen in the excerpts
T8 sequence: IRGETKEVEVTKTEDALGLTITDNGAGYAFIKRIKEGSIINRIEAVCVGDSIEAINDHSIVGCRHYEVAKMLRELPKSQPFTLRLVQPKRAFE
Nature of the assay: A/G assays.
Turning to Biotin-ARHRVTSYTSSSVNVSSNL [CDW128A (IL8RA) C-terminal peptide AA29.1L, biotinylated], the binding result is on record as “no binding”.
Turning to B1, the binding result is recorded as “no binding”.
Take B2: the binding result is “no binding”.

The target of another assay is T9, K858 PDZ-GST fusion protein (Homo sapiens (Human), UniProt Q8WWI1 1038-1131).
T9 construct: Order of GST and PDZ part and limits not seen in the excerpts
T9 sequence: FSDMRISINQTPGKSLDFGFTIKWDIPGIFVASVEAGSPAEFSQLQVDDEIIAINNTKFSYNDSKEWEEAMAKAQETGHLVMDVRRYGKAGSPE
Nature of the assay: A/G assays.
With Biotin-ARHRVTSYTSSSVNVSSNL [CDW128A (IL8RA) C-terminal peptide AA29.1L, biotinylated], the binding result is reported as “no binding”.
Turning to B1, the binding result was “no binding”.
Turning to B2, the binding result is recorded as “no binding”.

A further assay concerns the target T10, SP short PDZ-GST fusion protein (Homo sapiens (Human), UniProt O43464 350-435).
T10 construct: The label SP short is not explained in the excerpts
T10 sequence: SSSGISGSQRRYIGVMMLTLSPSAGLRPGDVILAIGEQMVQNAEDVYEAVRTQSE
The experiment in a line: A/G assays.
As to Biotin-ARHRVTSYTSSSVNVSSNL [CDW128A (IL8RA) C-terminal peptide AA29.1L, biotinylated], the binding result is “no binding”.
Take B1: the binding result is “no binding”.
For B2, the binding result is recorded as “no binding”.

The next assay deals with T11, ConEn PDZ-GST fusion protein (Homo sapiens (Human), UniProt Q969H4 193-287).
T11 construct: The label ConEn is not explained in the excerpts
T11 sequence: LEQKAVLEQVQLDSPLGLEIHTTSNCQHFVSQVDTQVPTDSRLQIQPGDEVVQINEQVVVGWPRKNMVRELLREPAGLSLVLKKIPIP
The experiment in a line: A/G assays.
For Biotin-ARHRVTSYTSSSVNVSSNL [CDW128A (IL8RA) C-terminal peptide AA29.1L, biotinylated], the binding result is “no binding”.
On the same count and under the same terms, in the case of B1 it was “no binding”.
Regarding B2, the binding result was “no binding”.

A further assay concerns the target T12, GST-prIL16 fusion protein (PDZ domains 1-2) (Homo sapiens (Human), UniProt Q14005 1111-1324).
T12 construct: also called putative interleukin 16 precursor; not shown: glutathione S-transferase encoded by vector pGEX-3X (Pharmacia)
T12 sequence: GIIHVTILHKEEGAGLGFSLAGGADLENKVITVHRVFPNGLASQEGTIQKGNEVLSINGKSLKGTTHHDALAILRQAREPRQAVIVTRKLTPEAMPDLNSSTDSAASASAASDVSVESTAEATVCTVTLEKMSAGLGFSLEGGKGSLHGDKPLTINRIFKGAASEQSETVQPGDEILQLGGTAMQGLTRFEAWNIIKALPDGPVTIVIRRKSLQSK
Nature of the assay: A/G assays.
Consider Biotin-ARHRVTSYTSSSVNVSSNL [CDW128A (IL8RA) C-terminal peptide AA29.1L, biotinylated], for which the binding result is on record as “no binding”.
For B1, the binding result is on record as “no binding”.
For the molecule B2, the binding result is recorded as “no binding”.

For the next assay, the target named is T13, GST-TIAM1 PDZ domain fusion protein (Homo sapiens (Human), UniProt Q13009 845-931).
T13 construct: also called TLAM1; T-lymphoma invasion and metastasis inducing protein 1; not shown: glutathione S-transferase encoded by vector pGEX-3X (Pharmacia)
T13 sequence (Q13009 other isoform, or with tags, fused parts or gaps): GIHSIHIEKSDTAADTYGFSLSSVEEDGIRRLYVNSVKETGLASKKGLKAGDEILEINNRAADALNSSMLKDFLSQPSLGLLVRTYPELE
Nature of the assay: A/G assays.
In the case of Biotin-ARHRVTSYTSSSVNVSSNL [CDW128A (IL8RA) C-terminal peptide AA29.1L, biotinylated], the binding result is on record as “no binding”.
As to B1, the binding result is given as “no binding”.
As for B2, the binding result is recorded as “no binding”.

Another assay addresses T14, PICK1 PDZ-GST fusion protein (Bos taurus (Bovine), UniProt Q2T9M1 17-105).
T14 construct: Order of GST and PDZ part and limits not seen in the excerpts
Nature of the assay: A/G assays.
For Biotin-ARHRVTSYTSSSVNVSSNL [CDW128A (IL8RA) C-terminal peptide AA29.1L, biotinylated], the binding result is “no binding”.
Regarding B1, the binding result is on record as “no binding”.
Take B2: the binding result is listed as “no binding”.

Another assay concerns the target T15, GST-TAX-IP2 PDZ domain fusion protein (human, UniProt O14908 129-216).
T15 construct: also called TAX-1P2; TAX2; not shown: glutathione S-transferase encoded by vector pGEX-3X (Pharmacia)
T15 chain: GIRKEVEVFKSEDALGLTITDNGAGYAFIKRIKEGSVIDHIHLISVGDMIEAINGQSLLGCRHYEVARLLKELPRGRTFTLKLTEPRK
Nature of the assay: A/G assays.
Turning to Biotin-ARHRVTSYTSSSVNVSSNL [CDW128A (IL8RA) C-terminal peptide AA29.1L, biotinylated], the binding result is “no binding”.
In the case of B1, the binding result is “no binding”.
The same measure, in the same setting: to B2 belongs “no binding”.

The next assay concerns the target T16, TAX-IP33 PDZ-GST fusion protein (Homo sapiens (Human), UniProt O14910 103-193).
T16 construct: Order of GST and PDZ part and limits not seen in the excerpts
T16 sequence: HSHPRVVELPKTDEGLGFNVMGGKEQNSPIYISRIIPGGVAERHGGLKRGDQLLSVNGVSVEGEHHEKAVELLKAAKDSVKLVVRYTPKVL
The experiment in a line: A/G assays.
Turning to Biotin-ARHRVTSYTSSSVNVSSNL [CDW128A (IL8RA) C-terminal peptide AA29.1L, biotinylated], the binding result is recorded as “no binding”.
On to B1, for which the binding result is “no binding”.
B2: the binding result is “no binding”.

The values above are taken from patent US20050037969A1 (ARBOR VITA, published 2005).
